# Patent US20230303698A1 (HARBOUR BIOMED SHANGHAI, published 2023)
# T1: human OX40 (human, UniProt P43489 29-277)
# T1 construct: whole, on cells; Expressed on CHO-K1/hu OX40 cells (GenScript, #M00561); also called CD134; TNFRSF4
# T1 sequence (looked up): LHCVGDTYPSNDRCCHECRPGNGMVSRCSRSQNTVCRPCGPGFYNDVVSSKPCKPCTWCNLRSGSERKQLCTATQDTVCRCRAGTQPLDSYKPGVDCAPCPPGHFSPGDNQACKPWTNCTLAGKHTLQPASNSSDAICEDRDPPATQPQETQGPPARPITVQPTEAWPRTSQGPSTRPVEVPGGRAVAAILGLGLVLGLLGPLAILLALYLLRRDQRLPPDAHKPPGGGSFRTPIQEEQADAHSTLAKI
# Key:
# [1] = biological target: T1, human OX40; test: flow cytometry, CHO-K1/hu OX40 cells
# Description: The antibody binding assay at the cellular level was performed using a CHO-K1 cell line CHO-K1/hu OX40 (GenScript, #M00561) highly expressing human OX40. Briefly, the CHO-K1/hu OX40 cells were digested and resuspended in an F12K complete medium, and the cell density was adjusted to 1×10⁶ cells/mL. […] The cells were incubated at 4° C. for 1 h away from light. Thereafter, the cells in each well were rinsed twice with 100 μL of pre-cooled PBS, and centrifuged at 500 g at 4° C. for 5 min, and then the supernatant was discarded. […] The plate was incubated away from light at 4° C. for 30 min. The cells in each well were rinsed twice with 100 L of pre-cooled PBS, and centrifuged at 500 g at 4° C. for 5 min, and then the supernatant was discarded. Finally, a pre-cooled PBS was added at 200 μL/well to resuspend the cells. Fluorescence signal values were read using a BD FACS CANTOII flow cytometer or an ACEA NovoCyte flow cytometer, and the data were processed and analyzed using FlowJo v10 (FlowJo, LLC) software.
# [2] = biological target: T2, human PD-L1 (human, UniProt Q9NZQ7 19-290); test: flow cytometry, CHO-K1/hPD-L1 cells
# T2 construct: whole, on cells; Expressed on CHO-K1/hPD-L1 cells (GenScript, M00543); also called CD274; B7-H1
# T2 sequence (Q9NZQ7 19-290): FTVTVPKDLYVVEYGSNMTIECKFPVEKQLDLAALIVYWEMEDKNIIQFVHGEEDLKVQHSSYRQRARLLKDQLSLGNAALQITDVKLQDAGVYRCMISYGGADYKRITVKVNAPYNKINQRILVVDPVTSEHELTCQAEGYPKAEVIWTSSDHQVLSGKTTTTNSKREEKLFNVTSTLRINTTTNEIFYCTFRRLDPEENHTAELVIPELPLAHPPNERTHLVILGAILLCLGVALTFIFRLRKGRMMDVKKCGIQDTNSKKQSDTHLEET
# [3] = biological target: T3, human 4-1BB (human, UniProt Q07011 24-255); test: flow cytometry, CHO-K1/hu 4-1BB cells
# T3 construct: whole, on cells; Expressed on CHO-K1/hu 4-1BB cells (GenScript, M00538); also called CD137; TNFRSF9
# T3 sequence (Q07011 24-255): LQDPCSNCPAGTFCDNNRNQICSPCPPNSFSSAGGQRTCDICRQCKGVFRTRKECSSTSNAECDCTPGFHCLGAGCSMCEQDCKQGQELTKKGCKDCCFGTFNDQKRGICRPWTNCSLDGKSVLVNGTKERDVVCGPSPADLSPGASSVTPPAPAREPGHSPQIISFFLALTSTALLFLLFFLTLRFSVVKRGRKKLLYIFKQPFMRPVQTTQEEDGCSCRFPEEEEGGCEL
# Description: The binding ability of the binding protein to a CHO-K1 cell line CHO-K1/hu 4-1BB (GenScript, M00538) highly expressing human 4-1BB and a CHO-K1 cell line CHO-K1/cyno 4-1BB (GenScript, M00569) highly expressing cynomolgus monkey 4-1BB were determined by flow cytometry FACS. Specifically, the cells were digested and resuspended in a complete medium, and the cell density was adjusted to 2×10⁶ cells/mL. […] The cells were incubated at 4° C. for 1 h away from light. Then, the cells in each well were rinsed twice with 100 μL of pre-cooled FACS buffer (PBS buffer containing 0.5% BSA) and centrifuged at 500 g at 4° C. for 5 min, and then the supernatant was discarded. […] Then, the cells in each well were then rinsed twice with 200 μL of pre-cooled FACS buffer and centrifuged at 500 g at 4° C. for 5 min, and then the supernatant was discarded. Finally, a pre-cooled FACS buffer was added at 200 μL/well to resuspend the cells. Fluorescence signal values were read using a BD FACS CANTOII flow cytometer or an ACEA NovoCyte flow cytometer, and the data were processed and analyzed using FlowJo v10 (FlowJo, LLC) software.
# [4] = biological target: T4, human PSMA (human, UniProt Q04609 1-750); test: flow cytometry, LNCaP cells highly expressing human PSMA
# T4 construct: whole, on cells; On LNCaP cells highly expressing human PSMA (Nanjing Cobioer, CBP60364); also called FOLH1; glutamate carboxypeptidase 2
# T4 sequence (Q04609 whole entry): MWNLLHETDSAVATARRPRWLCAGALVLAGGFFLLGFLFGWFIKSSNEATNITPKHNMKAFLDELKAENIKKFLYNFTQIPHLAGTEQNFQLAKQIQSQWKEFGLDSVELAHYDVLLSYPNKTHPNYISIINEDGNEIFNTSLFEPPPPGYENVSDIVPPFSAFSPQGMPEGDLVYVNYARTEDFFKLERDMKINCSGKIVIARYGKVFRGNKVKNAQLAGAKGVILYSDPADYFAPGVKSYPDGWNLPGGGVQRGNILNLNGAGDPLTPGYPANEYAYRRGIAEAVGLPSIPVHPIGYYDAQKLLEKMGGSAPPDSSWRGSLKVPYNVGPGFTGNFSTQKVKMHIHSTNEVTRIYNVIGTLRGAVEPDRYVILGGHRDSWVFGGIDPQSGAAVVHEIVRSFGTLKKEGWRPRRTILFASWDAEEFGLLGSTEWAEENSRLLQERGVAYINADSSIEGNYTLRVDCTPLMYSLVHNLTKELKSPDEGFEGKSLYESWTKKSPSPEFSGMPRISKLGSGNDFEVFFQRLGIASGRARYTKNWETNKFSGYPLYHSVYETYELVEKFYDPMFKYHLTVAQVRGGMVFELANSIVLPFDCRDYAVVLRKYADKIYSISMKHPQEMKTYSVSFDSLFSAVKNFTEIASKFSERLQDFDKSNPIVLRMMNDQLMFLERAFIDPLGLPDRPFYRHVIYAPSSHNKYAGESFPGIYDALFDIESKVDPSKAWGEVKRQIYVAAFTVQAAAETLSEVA
Binder,binding result [1],binding result [2],binding result [3],binding result [4]
"PR002067, anti-OX40 heavy-chain antibody R1026P079E12 (antibody, human IgG1, V domains shown, Fully human heavy-chain antibody (HCAb), heavy chain dimer without light chains; also called anti-OX40 HCAb antibody) VH: EVQLLESGGGLVQPGGSLRLSCAASGFTFSSYAMSWVRQAPGKGLEWVSAISGRGGSTFYADSVRGRFTISRDNSKNTLYLQMNSLRAEDTAMYYCVDGTTGTTDVDYWGQGTLVTVSS",binds,,,
"PR004270 (bispecific antibody, human IgG1, Structure 3, Fab(CL)-VH-Fc (Fab-HCAb) tetravalent symmetric; PD-L1 Fab from PR000265, 4-1BB VH from PR001760; L1 H1_15, L2 human IgG1 hinge (C220S); human IgG1 (LALA); also called PD-L1×4-1BB bispecific antibody molecule with the Fab-HCAb symmetric structure) chain 1: EVQLVESGGGLVQPGGSLRLSCAASGFTFSSYWMSWVRQAPGKGLEWVANIKQEGSEKYYVDSVKGRFTISRDNAKNSLYLQMNSLRAEDTAVYYCARDRAVAGAFDIWGQGTMVTVSSASTKGPSVFPLAPSSKSTSGGTAALGCLVKDYFPEPVTVSWNSGALTSGVHTFPAVLQSSGLYSLSSVVTVPSSSLGTQTYICNVNHKPSNTKVDKKVEPKSC chain 2: not shown",,binds,,
"PR007164 (bispecific antibody, human IgG1, Structure 3, Fab(CL)-VH-Fc (Fab-HCAb); PD-L1 Fab from PR000265, 4-1BB VH from PR001760; no first linker, second linker human IgG1 hinge (C220S); human IgG1 (LALA); also called PD-L1×4-1BB bispecific antibody molecule, structure (3)) chain 1: EVQLVESGGGLVQPGGSLRLSCAASGFTFSSYWMSWVRQAPGKGLEWVANIKQEGSEKYYVDSVKGRFTISRDNAKNSLYLQMNSLRAEDTAVYYCARDRAVAGAFDIWGQGTMVTVSSASTKGPSVFPLAPSSKSTSGGTAALGCLVKDYFPEPVTVSWNSGALTSGVHTFPAVLQSSGLYSLSSVVTVPSSSLGTQTYICNVNHKPSNTKVDKKVEPKSC chain 2: not shown",,binds,,
"PR000265, anti-PD-L1 91G3H5H3(D54E), hIgG1(N297A) (antibody, V domains shown, Parent monoclonal antibody of the PD-L1 end) VH: EVQLVESGGGLVQPGGSLRLSCAASGFTFSSYWMSWVRQAPGKGLEWVANIKQEGSEKYYVDSVKGRFTISRDNAKNSLYLQMNSLRAEDTAVYYCARDRAVAGAFDIWGQGTMVTVSS VL: DIQMTQSPSTLSASVGDRVTVTCRASQSIYIWLAWYQQKPGKAPNLLIYKASSLETGVPSRFSGSGSGTEFTLTISSLQPDDFATYYCQQYYGSSRTFGQGTKVEIKR",,binds,,
"PR003555 (bispecific antibody, human IgG1, kappa, L234A L235A, Structure 1, IgG-VH; PSMA Fab from PR001331, 4-1BB VH from PR001758; linker H1_15-RT; human IgG1 (AAG); also called PSMA×4-1BB bispecific antibody molecule) light: DIQMTQSPSSLSASIGDRVTITCRASQSINSYLNWYQQKPGKAPKLLIYTASSLLSGVPSRFSASGSWTDFSLTISSLQPEDFATYYCQQSFSTPYTFGQGTNLEIKRTVAAPSVFIFPPSDEQLKSGTASVVCLLNNFYPREAKVQWKVDNALQSGNSQESVTEQDSKDSTYSLSSTLTLSKADYEKHKVYACEVTHQGLSSPVTKSFNRGEC heavy: not shown",,,binds,binds
"PR003556 (bispecific antibody, human IgG1, kappa, L234A L235A, Structure 1, IgG-VH; PSMA Fab from PR001331, 4-1BB VH from PR001760; linker H1_15-RT; human IgG1 (AAG); also called PSMA×4-1BB bispecific antibody molecule) light: DIQMTQSPSSLSASIGDRVTITCRASQSINSYLNWYQQKPGKAPKLLIYTASSLLSGVPSRFSASGSWTDFSLTISSLQPEDFATYYCQQSFSTPYTFGQGTNLEIKRTVAAPSVFIFPPSDEQLKSGTASVVCLLNNFYPREAKVQWKVDNALQSGNSQESVTEQDSKDSTYSLSSTLTLSKADYEKHKVYACEVTHQGLSSPVTKSFNRGEC heavy: not shown",,,binds,binds
"PR003557 (bispecific antibody, human IgG1, kappa, L234A L235A, Structure 1, IgG-VH; PSMA Fab from PR001331, 4-1BB VH from PR001836; linker H1_15-RT; human IgG (AAG) as printed; also called PSMA×4-1BB bispecific antibody molecule) light: DIQMTQSPSSLSASIGDRVTITCRASQSINSYLNWYQQKPGKAPKLLIYTASSLLSGVPSRFSASGSWTDFSLTISSLQPEDFATYYCQQSFSTPYTFGQGTNLEIKRTVAAPSVFIFPPSDEQLKSGTASVVCLLNNFYPREAKVQWKVDNALQSGNSQESVTEQDSKDSTYSLSSTLTLSKADYEKHKVYACEVTHQGLSSPVTKSFNRGEC heavy: not shown",,,binds,binds
"PR003549 (bispecific antibody, human IgG1, kappa, L234A L235A, Structure 1, IgG-VH tetravalent symmetric; PD-L1 Fab from PR000265, 4-1BB VH from PR001758; linker H1_15-RT; human IgG1 (AAG); also called PD-L1×4-1BB bispecific antibody molecule) light: DIQMTQSPSTLSASVGDRVTVTCRASQSIYIWLAWYQQKPGKAPNLLIYKASSLETGVPSRFSGSGSGTEFTLTISSLQPDDFATYYCQQYYGSSRTFGQGTKVEIKRTVAAPSVFIFPPSDEQLKSGTASVVCLLNNFYPREAKVQWKVDNALQSGNSQESVTEQDSKDSTYSLSSTLTLSKADYEKHKVYACEVTHQGLSSPVTKSFNRGEC heavy: EVQLVESGGGLVQPGGSLRLSCAASGFTFSSYWMSWVRQAPGKGLEWVANIKQEGSEKYYVDSVKGRFTISRDNAKNSLYLQMNSLRAEDTAVYYCARDRAVAGAFDIWGQGTMVTVSSASTKGPSVFPLAPSSKSTSGGTAALGCLVKDYFPEPVTVSWNSGALTSGVHTFPAVLQSSGLYSLSSVVTVPSSSLGTQTYICNVNHKPSNTKVDKKVEPKSCDKTHTCPPCPAPEAAGGPSVFLFPPKPKDTLMISRTPEVTCVVVDVSHEDPEVKFNWYVDGVEVHNAKTKPREEQYNSTYRVVSVLTVLHQDWLNGKEYKCKVSNKALGAPIEKTISKAKGQPREPQVYTLPPSREEMTKNQVSLTCLVKGFYPSDIAVEWESNGQPENNYKTTPPVLDSDGSFFLYSKLTVDKSRWQQGNVFSCSVMHEALHNHYTQKSLSLSPGEPKSSDKTHTPPPPPRTEVQLLESGGGLVQLGGSLRLSCAASGFTFSRYAMTWVRQAPEKGLEWVSSISGSGDDTYYGDSVKGRFTISRDNSQNTVYLQMNSLRAEDTAVYFCAKEKAGTTGDYYYNVDVWGQGTTVTVSS",,binds,binds,
"PR007163 (bispecific antibody, human IgG1, Structure 4, Fab(CH1)-VH-Fc (Fab-HCAb); PD-L1 Fab from PR000265, 4-1BB VH from PR001760; no first linker, second linker human IgG1 hinge (C220S); human IgG1 (LALA); also called PD-L1×4-1BB bispecific antibody molecule, structure (4)) light: DIQMTQSPSTLSASVGDRVTVTCRASQSIYIWLAWYQQKPGKAPNLLIYKASSLETGVPSRFSGSGSGTEFTLTISSLQPDDFATYYCQQYYGSSRTFGQGTKVEIKRTVAAPSVFIFPPSDEQLKSGTASVVCLLNNFYPREAKVQWKVDNALQSGNSQESVTEQDSKDSTYSLSSTLTLSKADYEKHKVYACEVTHQGLSSPVTKSFNRGEC heavy: not shown",,binds,,
"PR003550 (bispecific antibody, human IgG1, kappa, L234A L235A, Structure 1, IgG-VH tetravalent symmetric; PD-L1 Fab from PR000265, 4-1BB VH from PR001760; linker H1_15-RT; human IgG1 (AAG); also called PD-L1×4-1BB bispecific antibody molecule) light: DIQMTQSPSTLSASVGDRVTVTCRASQSIYIWLAWYQQKPGKAPNLLIYKASSLETGVPSRFSGSGSGTEFTLTISSLQPDDFATYYCQQYYGSSRTFGQGTKVEIKRTVAAPSVFIFPPSDEQLKSGTASVVCLLNNFYPREAKVQWKVDNALQSGNSQESVTEQDSKDSTYSLSSTLTLSKADYEKHKVYACEVTHQGLSSPVTKSFNRGEC heavy: EVQLVESGGGLVQPGGSLRLSCAASGFTFSSYWMSWVRQAPGKGLEWVANIKQEGSEKYYVDSVKGRFTISRDNAKNSLYLQMNSLRAEDTAVYYCARDRAVAGAFDIWGQGTMVTVSSASTKGPSVFPLAPSSKSTSGGTAALGCLVKDYFPEPVTVSWNSGALTSGVHTFPAVLQSSGLYSLSSVVTVPSSSLGTQTYICNVNHKPSNTKVDKKVEPKSCDKTHTCPPCPAPEAAGGPSVFLFPPKPKDTLMISRTPEVTCVVVDVSHEDPEVKFNWYVDGVEVHNAKTKPREEQYNSTYRVVSVLTVLHQDWLNGKEYKCKVSNKALGAPIEKTISKAKGQPREPQVYTLPPSREEMTKNQVSLTCLVKGFYPSDIAVEWESNGQPENNYKTTPPVLDSDGSFFLYSKLTVDKSRWQQGNVFSCSVMHEALHNHYTQKSLSLSPGEPKSSDKTHTPPPPPRTEVQLVESGGGVVQPGGSLRLSCAASGFTFSNYAMTWVRQAPEKGLEWVSSISGSGVSTYYADSVKGRFTISRDNSKNTLYLQMTRLTAEDTAVYFCAKEGSSETDDHYYNVDVWGQGTTVTVSS",,binds,,
"PR003551 (bispecific antibody, human IgG1, kappa, L234A L235A, Structure 1, IgG-VH tetravalent symmetric; PD-L1 Fab from PR000265, 4-1BB VH from PR001836; linker H1_15-RT; human IgG (AAG) as printed; also called PD-L1×4-1BB bispecific antibody molecule) light: DIQMTQSPSTLSASVGDRVTVTCRASQSIYIWLAWYQQKPGKAPNLLIYKASSLETGVPSRFSGSGSGTEFTLTISSLQPDDFATYYCQQYYGSSRTFGQGTKVEIKRTVAAPSVFIFPPSDEQLKSGTASVVCLLNNFYPREAKVQWKVDNALQSGNSQESVTEQDSKDSTYSLSSTLTLSKADYEKHKVYACEVTHQGLSSPVTKSFNRGEC heavy: EVQLVESGGGLVQPGGSLRLSCAASGFTFSSYWMSWVRQAPGKGLEWVANIKQEGSEKYYVDSVKGRFTISRDNAKNSLYLQMNSLRAEDTAVYYCARDRAVAGAFDIWGQGTMVTVSSASTKGPSVFPLAPSSKSTSGGTAALGCLVKDYFPEPVTVSWNSGALTSGVHTFPAVLQSSGLYSLSSVVTVPSSSLGTQTYICNVNHKPSNTKVDKKVEPKSCDKTHTCPPCPAPEAAGGPSVFLFPPKPKDTLMISRTPEVTCVVVDVSHEDPEVKFNWYVDGVEVHNAKTKPREEQYNSTYRVVSVLTVLHQDWLNGKEYKCKVSNKALGAPIEKTISKAKGQPREPQVYTLPPSREEMTKNQVSLTCLVKGFYPSDIAVEWESNGQPENNYKTTPPVLDSDGSFFLYSKLTVDKSRWQQGNVFSCSVMHEALHNHYTQKSLSLSPGEPKSSDKTHTPPPPPRTEVQLLESGGGLVQPGGSLRLSCAASGFIFSNFAMTWVRQPPEKGLKWVSSINGSGFNTYYTDSVKGRFTISRDNSRNTLYLQMNRLTAEDTAVYFCAKEGSSETDDHYYNVDVWGQGTTVTVSS",,binds,binds,
"PR001331, anti-PSMA monoclonal antibody 2E8A1B1 hIgG1 (antibody, V domains shown, Parent monoclonal antibody of the PSMA end; hIgG1) VH: QVQLVESGGGVVQPGRSLRLSCSASGFTFINYGMNWVRQAPGKGLEWVAVIWYDGSNKYYADSVRGRFTISRDNSKNTLYLQMNSLRAEDTAVYYCARGPGYGGHSDAFDIWGQGTMVTVSS VL: DIQMTQSPSSLSASIGDRVTITCRASQSINSYLNWYQQKPGKAPKLLIYTASSLLSGVPSRFSASGSWTDFSLTISSLQPEDFATYYCQQSFSTPYTFGQGTNLEIKR",,,,binds
